The values below are quoted from earlier work in article PMC4626678.

The data set deals with Trypsin (Bos taurus) (UniProt P00760).
Sequence of Trypsin (Bos taurus) (P00760 149-246): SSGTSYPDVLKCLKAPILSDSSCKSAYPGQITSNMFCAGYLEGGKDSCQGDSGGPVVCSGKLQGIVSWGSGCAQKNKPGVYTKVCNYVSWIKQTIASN

Sequence of ShPI-1 (P31713 whole entry): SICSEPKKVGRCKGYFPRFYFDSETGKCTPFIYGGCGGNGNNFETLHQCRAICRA

Consider ShPI-1 (from UniProt P31713), for which the Ki was 0.11 nM.

What is called Ki is a measure of affinity in units of concentration, obtained from inhibition or displacement.
